Laboratory results: the Immune Epitope Database (IEDB)
One block for each sequence: values may come before it.

How the values were obtained:
HLA-A*01:01 = assay: IEDB peptide-MHC binding, purified MHC/direct/fluorescence; filed as Kd, often an IC50 or EC50 that approximates it; ≥ and ≤ were set here for values at or beyond the usual limits of such assays
HLA-A*02:01 [1] = assay: as above
HLA-A*03:01 = assay: as above
HLA-A*11:01 = assay: as above
HLA-A*26:01 = assay: as above
HLA-A*31:01 = assay: as above
HLA-A*69:01 [2] = assay: as above
HLA-B*07:02 = assay: as above
HLA-B*08:01 = assay: as above
HLA-B*15:01 = assay: as above
HLA-B*27:05 = assay: as above
HLA-B*35:01 = assay: as above
HLA-B*40:01 = assay: as above
HLA-B*44:02 = assay: as above
HLA-B*58:01 = assay: as above
HLA-A*30:01 = assay: as above
HLA-A*23:01 = assay: IEDB peptide-MHC binding, purified MHC/competitive/fluorescence; filed as Kd, often an IC50 or EC50 that approximates it; ≥ and ≤ were set here for values at or beyond the usual limits of such assays; details: source organism: Vibrio cholerae 2740-80
HLA-A*24:03 = assay: IEDB peptide-MHC binding, purified MHC/direct/fluorescence; filed as Kd, often an IC50 or EC50 that approximates it; ≥ and ≤ were set here for values at or beyond the usual limits of such assays
HLA-B*46:01 = assay: as above; details: source organism: Yellow fever virus 17D
HLA-B*51:01 = assay: as above; details: source organism: Yellow fever virus 17D
HLA-C*14:02 = assay: as above; details: source organism: Yellow fever virus
HLA-C*15:02 = assay: as above; details: source organism: Yellow fever virus
HLA-A*02:01 [3] = assay: IEDB peptide-MHC binding, purified MHC/competitive/fluorescence; filed as Kd, often an IC50 or EC50 that approximates it; ≥ and ≤ were set here for values at or beyond the usual limits of such assays
HLA-A*02:11 = assay: as above
HLA-A*02:19 = assay: as above; details: source organism: Human immunodeficiency virus type 1 (BH5 ISOLATE)
HLA-A*69:01 [4] = assay: as above; details: source organism: Human immunodeficiency virus type 1 (BH5 ISOLATE)
HLA-A*02:02 = assay: IEDB peptide-MHC binding, purified MHC/competitive/radioactivity; filed as Kd, often an IC50 or EC50 that approximates it; ≥ and ≤ were set here for values at or beyond the usual limits of such assays; details: source organism: HIV-1 M:B_ARV2/SF2
HLA-A*02:03 = assay: as above; details: source organism: HIV-1 M:B_ARV2/SF2
HLA-A*02:06 = assay: as above; details: source organism: HIV-1 M:B_ARV2/SF2
[5] = source organism: Salmonella enterica
[6] = source organism: Pseudomonas putida
[7] = source organism: Vibrio vulnificus
[8] = source organism: Giardia lamblia ATCC 50803
[9] = source organism: Orthohantavirus hantanense
[10] = source organism: Aggregatibacter actinomycetemcomitans
[11] = source organism: Human immunodeficiency virus type 1 (BH5 ISOLATE)
[12] = source organism: Vibrio cholerae

Sequence: AHSKAETEA
- Kd (HLA-A*01:01; [5]): ≥ 20 µM
- Kd (HLA-A*02:01 [1]; [5]): ≥ 20 µM
- Kd (HLA-A*03:01; [5]): ≥ 20 µM
- Kd (HLA-A*11:01; [5]): ≥ 20 µM
- Kd (HLA-A*26:01; [5]): ≥ 20 µM
- Kd (HLA-A*31:01; [5]): ≥ 20 µM
- Kd (HLA-A*69:01 [2]; [5]): ≥ 20 µM
- Kd (HLA-B*07:02; [5]): ≥ 20 µM
- Kd (HLA-B*08:01; [5]): ≥ 20 µM
- Kd (HLA-B*15:01; [5]): ≥ 20 µM
- Kd (HLA-B*27:05; [5]): ≥ 20 µM
- Kd (HLA-B*35:01; source organism: Salmonella enterica subsp. enterica serovar Typhimurium): ≥ 20 µM
- Kd (HLA-B*40:01; [5]): ≥ 20 µM
- Kd (HLA-B*44:02; [5]): ≥ 20 µM
- Kd (HLA-B*58:01; [5]): ≥ 20 µM

Sequence: EYVGKTVWF
- Kd (HLA-A*30:01; source organism: West Nile virus SPU116/89): ≥ 20 µM

Sequence: FVQGVIWNI
- Kd (HLA-A*23:01): 0.0365 µM

- Kd (HLA-A*01:01; [6]): 0.67 µM
- Kd (HLA-A*26:01; [6]): 0.00541 µM
- Kd (HLA-A*31:01; [6]): 1.15 µM
- Kd (HLA-A*69:01 [2]; [6]): 0.0328 µM
- Kd (HLA-B*15:01; [6]): 0.0906 µM
- Kd (HLA-B*35:01; [6]): 0.171 µM
Sequence: HTAEIQQFF

Sequence: QSPQPVRVK
- Kd (HLA-A*01:01; [7]): ≥ 20 µM
- Kd (HLA-A*02:01 [1]; [7]): ≥ 20 µM
- Kd (HLA-A*03:01; [7]): 19.3 µM
- Kd (HLA-A*11:01; [7]): 12.2 µM
- Kd (HLA-A*24:03; [7]): ≥ 20 µM
- Kd (HLA-A*26:01; [7]): ≥ 20 µM
- Kd (HLA-A*30:01; [7]): 3.75 µM
- Kd (HLA-A*69:01 [2]; [7]): ≥ 20 µM
- Kd (HLA-B*07:02; [7]): ≥ 20 µM
- Kd (HLA-B*08:01; [7]): ≥ 20 µM
- Kd (HLA-B*15:01; [7]): ≥ 20 µM
- Kd (HLA-B*27:05; [7]): ≥ 20 µM
- Kd (HLA-B*40:01; [7]): ≥ 20 µM
- Kd (HLA-B*58:01; [7]): ≥ 20 µM

Sequence: QTSTLYDFY
- Kd (HLA-A*01:01; [8]): 0.0397 µM
- Kd (HLA-A*02:01 [1]; [8]): ≥ 20 µM
- Kd (HLA-A*03:01; [8]): ≥ 20 µM
- Kd (HLA-A*11:01; [8]): ≥ 20 µM
- Kd (HLA-A*24:03; [8]): ≥ 20 µM
- Kd (HLA-A*26:01; [8]): ≥ 20 µM
- Kd (HLA-A*31:01; [8]): ≥ 20 µM
- Kd (HLA-A*69:01 [2]; [8]): ≥ 20 µM
- Kd (HLA-B*07:02; [8]): ≥ 20 µM
- Kd (HLA-B*08:01; [8]): ≥ 20 µM
- Kd (HLA-B*15:01; [8]): 1.71 µM
- Kd (HLA-B*27:05; [8]): ≥ 20 µM
- Kd (HLA-B*35:01; [8]): 0.0286 µM
- Kd (HLA-B*40:01; [8]): ≥ 20 µM
- Kd (HLA-B*44:02; [8]): ≥ 20 µM
- Kd (HLA-B*58:01; [8]): 3.79 µM

Sequence: RLNLKTSFH
- Kd (HLA-A*03:01; [9]): 0.407 µM
- Kd (HLA-A*11:01; [9]): 1.35 µM
- Kd (HLA-A*30:01; source organism: Sapporo rat virus): 0.1 µM

Sequence: RVLDCRTAF
- Kd (HLA-B*15:01; source organism: Yellow fever virus 17D): 0.108 µM
- Kd (HLA-B*35:01; source organism: Yellow fever virus): 0.324 µM
- Kd (HLA-B*46:01): ≥ 20 µM
- Kd (HLA-B*51:01): ≥ 20 µM
- Kd (HLA-C*14:02): 0.349 µM
- Kd (HLA-C*15:02): ≥ 20 µM

Sequence: SLQECVKMA
- Kd (HLA-A*02:01 [3]; [8]): 0.0007 µM
- Kd (HLA-A*02:11; [8]): 0.0021 µM

- Kd (HLA-A*01:01; [10]): ≥ 20 µM
- Kd (HLA-A*02:01 [1]; [10]): ≥ 20 µM
- Kd (HLA-A*03:01; [10]): 2.99 µM
- Kd (HLA-A*11:01; [10]): 0.127 µM
- Kd (HLA-A*24:03; [10]): ≥ 20 µM
- Kd (HLA-A*26:01; [10]): ≥ 20 µM
- Kd (HLA-A*30:01; [10]): 0.00023 µM
- Kd (HLA-A*31:01; [10]): 0.0607 µM
- Kd (HLA-A*69:01 [2]; [10]): ≥ 20 µM
- Kd (HLA-B*07:02; [10]): ≥ 20 µM
- Kd (HLA-B*08:01; [10]): ≥ 20 µM
- Kd (HLA-B*15:01; [10]): ≥ 20 µM
- Kd (HLA-B*27:05; [10]): ≥ 20 µM
- Kd (HLA-B*40:01; [10]): ≥ 20 µM
- Kd (HLA-B*58:01; [10]): ≥ 20 µM
Sequence: TTRAWFDKK

Sequence: VLAEAMSQV
- Kd (HLA-A*02:01 [3]; [11]): 0.0275 µM
- Kd (HLA-A*02:11; [11]): ≤ 0.0001 µM
- Kd (HLA-A*02:19): 0.00125 µM
- Kd (HLA-A*69:01 [4]): 0.0827 µM
- Kd (HLA-A*02:02): 0.00243 µM
- Kd (HLA-A*02:03): 0.00437 µM
- Kd (HLA-A*02:06): 0.0131 µM

Sequence: WAGIWGGKL
- Kd (HLA-A*01:01; [12]): ≥ 20 µM
- Kd (HLA-A*02:01 [1]; [12]): ≥ 20 µM
- Kd (HLA-A*03:01; [12]): ≥ 20 µM
- Kd (HLA-A*11:01; [12]): ≥ 20 µM
- Kd (HLA-A*26:01; [12]): ≥ 20 µM
- Kd (HLA-A*31:01; [12]): ≥ 20 µM
- Kd (HLA-A*69:01 [2]; [12]): 0.242 µM
- Kd (HLA-B*07:02; [12]): 13 µM
- Kd (HLA-B*08:01; [12]): ≥ 20 µM
- Kd (HLA-B*15:01; [12]): ≥ 20 µM
- Kd (HLA-B*27:05; [12]): ≥ 20 µM
- Kd (HLA-B*35:01; [12]): 0.342 µM
- Kd (HLA-B*40:01; [12]): ≥ 20 µM
- Kd (HLA-B*44:02; [12]): ≥ 20 µM
- Kd (HLA-B*58:01; [12]): ≥ 20 µM
